Measured values from patent US20210253718A1 (MODMAB THERAPEUTICS, published 2021).
Substitutions are numbered along the chain they refer to. Each block holds one binder with its values, some of them ahead of it.

Experiments:
[1] = molecular target: T1, FZD5 cysteine-rich domain (CRD), MYC-tagged and GPI-anchored on CHO cells (human, UniProt Q13467 29-156, GPI anchor); test: flow cytometry, CHO-CRD cells;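 note: flow cytometry of Fab binding to CHO cells overexpressing a Frizzled CRD, with binding defined as median fluorescence over twice that of CHO cells lacking any Frizzled CRD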
T1 construct: also called FZD5 CRD; CHO-myc-FZDGPI; not shown: MYC tag and GPI anchor signal
T1 sequence: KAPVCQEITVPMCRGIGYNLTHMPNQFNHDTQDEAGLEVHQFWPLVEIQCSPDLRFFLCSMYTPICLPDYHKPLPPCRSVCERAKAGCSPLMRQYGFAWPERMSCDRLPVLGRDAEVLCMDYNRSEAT

[2] = molecular target: T2, FZD10 cysteine-rich domain (CRD), MYC-tagged and GPI-anchored on CHO cells (human, UniProt Q9ULW2 30-156, GPI anchor); test: flow cytometry, CHO-CRD cells;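 note: flow cytometry of Fab binding to CHO cells overexpressing a Frizzled CRD, with binding defined as median fluorescence over twice that of CHO cells lacking any Frizzled CRD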
T2 construct: also called FZD10 CRD; CHO-myc-FZDGPI; not shown: MYC tag and GPI anchor signal
T2 sequence: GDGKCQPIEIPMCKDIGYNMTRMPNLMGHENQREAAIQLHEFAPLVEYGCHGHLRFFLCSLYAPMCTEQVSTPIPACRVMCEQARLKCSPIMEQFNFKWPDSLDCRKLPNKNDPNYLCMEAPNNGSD

[3] = molecular target: T3, FZD9 cysteine-rich domain (CRD), MYC-tagged and GPI-anchored on CHO cells (human, UniProt O00144 35-161, GPI anchor); test: flow cytometry, CHO-CRD cells;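 note: flow cytometry of Fab binding to CHO cells overexpressing a Frizzled CRD, with binding defined as median fluorescence over twice that of CHO cells lacking any Frizzled CRD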
T3 construct: also called FZD9 CRD; CHO-myc-FZDGPI; not shown: MYC tag and GPI anchor signal
T3 sequence: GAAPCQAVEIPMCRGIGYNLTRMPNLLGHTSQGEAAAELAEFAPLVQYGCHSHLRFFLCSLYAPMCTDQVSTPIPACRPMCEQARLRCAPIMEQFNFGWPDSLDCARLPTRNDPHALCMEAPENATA

[4] = molecular target: T4, FZD4 cysteine-rich domain (CRD), MYC-tagged and GPI-anchored on CHO cells (human, UniProt Q9ULV1 42-167, GPI anchor); test: flow cytometry, CHO-CRD cells;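 note: flow cytometry of Fab binding to CHO cells overexpressing a Frizzled CRD, with binding defined as median fluorescence over twice that of CHO cells lacking any Frizzled CRD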
T4 construct: also called FZD4 CRD; CHO-myc-FZDGPI; not shown: MYC tag and GPI anchor signal
T4 sequence: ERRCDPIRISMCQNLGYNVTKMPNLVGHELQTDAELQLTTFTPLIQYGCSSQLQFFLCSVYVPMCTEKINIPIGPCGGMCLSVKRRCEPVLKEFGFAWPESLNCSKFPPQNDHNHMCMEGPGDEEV

[5] = molecular target: T5, FZD2 cysteine-rich domain (CRD), MYC-tagged and GPI-anchored on CHO cells (human, UniProt Q14332 35-161); test: flow cytometry, CHO-CRD cells
[6] = molecular target: T6, FZD7 cysteine-rich domain (CRD), MYC-tagged and GPI-anchored on CHO cells (human, UniProt O75084 45-169); test: flow cytometry, CHO-CRD cells
[7] = molecular target: T7, FZD8 cysteine-rich domain (CRD), MYC-tagged and GPI-anchored on CHO cells (human, UniProt Q498S8 31-155 (rat entry), GPI anchor); test: flow cytometry, CHO-CRD cells
T7 construct: also called FZD8 CRD; CHO-myc-FZDGPI; not shown: MYC tag and GPI anchor signal
T7 sequence: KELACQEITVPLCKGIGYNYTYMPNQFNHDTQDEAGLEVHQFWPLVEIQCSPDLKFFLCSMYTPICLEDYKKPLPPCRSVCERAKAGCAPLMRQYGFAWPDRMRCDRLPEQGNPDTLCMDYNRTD

[8] = molecular target: T8, FZD3 cysteine-rich domain (CRD), MYC-tagged and GPI-anchored on CHO cells (human, UniProt Q9NPG1 24-150, GPI anchor); test: flow cytometry, CHO-CRD cells
T8 construct: domain: cysteine-rich domain (CRD); also called FZD3 CRD; CHO-myc-FZDGPI; not shown: MYC tag and GPI anchor signal
T8 sequence (looked up): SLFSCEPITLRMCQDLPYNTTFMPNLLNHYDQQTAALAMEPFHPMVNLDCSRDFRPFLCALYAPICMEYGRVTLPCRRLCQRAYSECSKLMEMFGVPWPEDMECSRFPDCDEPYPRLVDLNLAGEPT

[9] = molecular target: T9, FZD6 cysteine-rich domain (CRD), MYC-tagged and GPI-anchored on CHO cells (human, UniProt O60353 20-146, GPI anchor); test: flow cytometry, CHO-CRD cells
T9 construct: also called FZD6 CRD; CHO-myc-FZDGPI; not shown: MYC tag and GPI anchor signal
T9 sequence: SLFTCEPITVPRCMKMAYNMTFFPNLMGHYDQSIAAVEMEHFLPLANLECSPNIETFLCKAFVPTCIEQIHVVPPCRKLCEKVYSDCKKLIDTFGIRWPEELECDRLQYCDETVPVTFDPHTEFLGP

[10] = molecular target: T10, FZD1 cysteine-rich domain (CRD), MYC-tagged and GPI-anchored on CHO cells (human); test: flow cytometry, CHO-CRD cells
[11] = molecular target: T1, FZD5 cysteine-rich domain (CRD), …; test: flow cytometry on CHO-GPI cells over-expressing the Frizzled CRD;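 note: binding of recombinant anti-Frizzled Fabs to the cells, read as fold mean fluorescence intensity above secondary-antibody-only background and normalized to control CHO-GPI cells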
[12] = molecular target: T2, FZD10 cysteine-rich domain (CRD), …; test: as above
[13] = molecular target: T3, FZD9 cysteine-rich domain (CRD), …; test: as above
[14] = molecular target: T4, FZD4 cysteine-rich domain (CRD), …; test: as above
[15] = molecular target: T5, FZD2 cysteine-rich domain (CRD), …; test: as above
[16] = molecular target: T6, FZD7 cysteine-rich domain (CRD), …; test: as above
[17] = molecular target: T7, FZD8 cysteine-rich domain (CRD), …; test: as above
[18] = molecular target: T8, FZD3 cysteine-rich domain (CRD), …; test: as above
[19] = molecular target: T9, FZD6 cysteine-rich domain (CRD), …; test: as above
[20] = molecular target: T10, FZD1 cysteine-rich domain (CRD), …; test: as above
FZD1-Fc = molecular target: T11, FZD1-Fc (UniProt Q9UP38 73-250, limits assumed); test: SPR, Frizzled-Fc chimera;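 note: binding targets are Fc fusions carrying an extracellular Frizzled fragment that contains the CRD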
T11 construct: extracellular domain; also called Frizzled-Fc chimera (FZD1); not shown: Fc part
T11 sequence (Q9UP38 73-250 limits assumed): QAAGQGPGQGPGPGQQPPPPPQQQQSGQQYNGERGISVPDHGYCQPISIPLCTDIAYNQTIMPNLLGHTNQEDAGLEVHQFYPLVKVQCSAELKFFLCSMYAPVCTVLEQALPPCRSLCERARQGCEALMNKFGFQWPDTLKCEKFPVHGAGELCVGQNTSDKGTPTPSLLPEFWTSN

[21] = molecular target: T12, recombinant human FZD5-Fc chimera (R&D Systems, Catalog no. 1617-FZ) (human, UniProt Q13467 27-167); test: SPR, Frizzled-Fc chimera;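 note: binding targets are Fc fusions carrying an extracellular Frizzled fragment that contains the CRD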
T12 construct: used for selection and ELISA; Fc part of the bought chimera not given
T12 sequence: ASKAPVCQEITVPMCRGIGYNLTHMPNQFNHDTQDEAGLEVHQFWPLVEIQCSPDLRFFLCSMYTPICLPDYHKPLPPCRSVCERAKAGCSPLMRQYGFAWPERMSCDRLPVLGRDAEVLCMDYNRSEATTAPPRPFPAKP

FZD8-Fc = molecular target: T13, FZD8-Fc (UniProt Q9H461 28-158, limits assumed); test: SPR, Frizzled-Fc chimera;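 note: binding targets are Fc fusions carrying an extracellular Frizzled fragment that contains the CRD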
T13 construct: extracellular domain; also called Frizzled-Fc chimera (FZD8); not shown: Fc part
T13 sequence (looked up): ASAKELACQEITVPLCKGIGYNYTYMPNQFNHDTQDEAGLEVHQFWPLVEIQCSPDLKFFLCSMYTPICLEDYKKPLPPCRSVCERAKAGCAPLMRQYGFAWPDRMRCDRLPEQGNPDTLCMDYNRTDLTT

FZD2-Fc = molecular target: T14, FZD2-Fc (UniProt Q14332 24-190, limits assumed); test: SPR, Frizzled-Fc chimera;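 note: binding targets are Fc fusions carrying an extracellular Frizzled fragment that contains the CRD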
T14 construct: extracellular domain; also called Frizzled-Fc chimera (FZD2); not shown: Fc part

FZD7-Fc = FZD7-Fc (UniProt O75084 33-185); test: SPR, Frizzled-Fc chimera

median fluorescence [1]: 43.7
median fluorescence [2]: 2.48
median fluorescence [3]: 2.79
median fluorescence [4]: 3.79
median fluorescence [5]: 4.26
median fluorescence [6]: 2.41
median fluorescence [7]: 20.5
median fluorescence [8]: 3.96
median fluorescence [9]: 2.64
median fluorescence [10]: 3.52
fold-increase in mean fluorescence intensity over background (secondary antibody alone), normalized to control CHO-GPI [11]: 19.2 fold
binding result [12]: no binding (tested: 200 nM)
binding result [13]: no binding (tested: 200 nM)
binding result [14]: no binding (tested: 200 nM)
binding result [15]: no binding (tested: 200 nM)
binding result [16]: no binding (tested: 200 nM)
fold-increase in mean fluorescence intensity over background (secondary antibody alone), normalized to control CHO-GPI [17]: 14.4 fold
binding result [18]: no binding (tested: 200 nM)
binding result [19]: no binding (tested: 200 nM)
binding result [20]: no binding (tested: 200 nM)
B1: Fab-2919 (Fab, V domains shown)
VH: EVQLVESGGGLVQPGGSLRLSCAASGFNISYSYIHWVRQAPGKGLEWVASIYSSSGSTSYADSVKGRFTISADTSKNTAYLQMNSLRAEDTAVYYCARGAIDYWGQGTLVTVSS
VL: DIQMTQSPSSLSASVGDRVTITCRASQSVSSAVAWYQQKPGKAPKLLIYSASSLYSGVPSRFSGSRSGTDFTLTISSLQPEDFATYYCQQWYSSGHVLITFGQGTKVEIK
notes: Fab

median fluorescence [1]: 29.4
median fluorescence [2]: 2.48
median fluorescence [3]: 2.94
median fluorescence [4]: 4.1
median fluorescence [5]: 4.37
median fluorescence [6]: 4.37
median fluorescence [7]: 6.98
median fluorescence [8]: 3.59
median fluorescence [9]: 2.67
median fluorescence [10]: 4.53
fold-increase in mean fluorescence intensity over background (secondary antibody alone), normalized to control CHO-GPI [11]: 14 fold
binding result [12]: no binding (tested: 200 nM)
binding result [13]: no binding (tested: 200 nM)
binding result [14]: no binding (tested: 200 nM)
binding result [15]: no binding (tested: 200 nM)
binding result [16]: no binding (tested: 200 nM)
fold-increase in mean fluorescence intensity over background (secondary antibody alone), normalized to control CHO-GPI [17]: 6.8 fold
binding result [18]: no binding (tested: 200 nM)
binding result [19]: no binding (tested: 200 nM)
binding result [20]: no binding (tested: 200 nM)
B2: Fab-2921 (Fab, V domains shown)
VH: B1 VH with S32Y, S53P, I101M
VL: DIQMTQSPSSLSASVGDRVTITCRASQSVSSAVAWYQQKPGKAPKLLIYSASSLYSGVPSRFSGSRSGTDFTLTISSLQPEDFATYYCQQWYAGSLITFGQGTKVEIK
notes: Fab

Kd (FZD1-Fc): 1.24 nM
koff (FZD1-Fc): 0.000451 s⁻¹
kon (FZD1-Fc): 364000 M⁻¹ s⁻¹
Kd [21]: 0.00988 nM
koff [21]: 1.3e-05 s⁻¹
kon [21]: 1.32e+06 M⁻¹ s⁻¹
Kd (FZD8-Fc): 0.0455 nM
koff (FZD8-Fc): 4.75e-05 s⁻¹
kon (FZD8-Fc): 1.04e+06 M⁻¹ s⁻¹
Kd (FZD2-Fc): 0.905 nM
koff (FZD2-Fc): 0.000452 s⁻¹
kon (FZD2-Fc): 500000 M⁻¹ s⁻¹
Kd (FZD7-Fc): 0.496 nM
koff (FZD7-Fc): 0.000382 s⁻¹
kon (FZD7-Fc): 770000 M⁻¹ s⁻¹
B3: IgG-2916 (antibody, V domains shown)
VH: EVQLVESGGGLVQPGGSLRLSCAASGFNISYSSIHWVRQAPGKGLEWVASIYPSYSYTYYADSVKGRFTISADTSKNTAYLQMNSLRAEDTAVYYCARYGYYGMDYWGQGTLVTVSS
VL: DIQMTQSPSSLSASVGDRVTITCRASQSVSSAVAWYQQKPGKAPKLLIYSASSLYSGVPSRFSGSRSGTDFTLTISSLQPEDFATYYCQQWYHYPYLITFGQGTKVEIK
